According to article PMC314469, “Protein Interaction Networks by Proteome Peptide Scanning” (PLoS Biology, 2004):

Tests used:
Assay in all cases: SPOT array
[1] = molecular target: T1, Rvs167 SH3 (RV167_YEAST), P39743
T1 chain: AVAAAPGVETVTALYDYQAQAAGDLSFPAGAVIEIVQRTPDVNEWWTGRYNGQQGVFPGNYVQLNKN

[2] = molecular target: T2, Boi2 SH3 (BOI2_YEAST), P39969
T2 chain: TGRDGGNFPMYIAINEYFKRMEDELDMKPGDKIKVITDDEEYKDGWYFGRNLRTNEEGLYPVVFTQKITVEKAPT

[3] = molecular target: T3, Yhr016c SH3 (YSC84_YEAST), P32793
T3 chain: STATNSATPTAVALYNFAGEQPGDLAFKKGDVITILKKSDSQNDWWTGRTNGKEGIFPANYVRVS

[4] = molecular target: T4, Yfr024 SH3 (LSB3_YEAST), P43603
T4 chain: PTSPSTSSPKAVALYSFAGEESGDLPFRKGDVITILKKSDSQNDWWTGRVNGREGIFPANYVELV

[5] = molecular target: T5, Boi1 SH3 (BOI1_YEAST), P38041
T5 chain: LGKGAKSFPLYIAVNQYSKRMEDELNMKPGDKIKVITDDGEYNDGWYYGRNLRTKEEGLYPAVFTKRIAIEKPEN

B1: YDR130C 112-125 (peptide)
chain: IIFPTSPTKLTFSN
- normalised SPOT signal, Boehringer light units (BLU); mean over the file's lines of this peptide [1]: 84.2
- normalised SPOT signal, Boehringer light units (BLU); mean over the file's lines of this peptide [2]: 13.9
- normalised SPOT signal, Boehringer light units (BLU); mean over the file's lines of this peptide [3]: 0
- normalised SPOT signal, Boehringer light units (BLU); mean over the file's lines of this peptide [4]: 314
- normalised SPOT signal, Boehringer light units (BLU); mean over the file's lines of this peptide [5]: 45.5

B2: YJR054W 69-82 (peptide)
chain: IIKPYLPFKISKWL
- normalised SPOT signal, Boehringer light units (BLU); mean over the file's lines of this peptide [1]: 68.5
- normalised SPOT signal, Boehringer light units (BLU); mean over the file's lines of this peptide [2]: 39.8
- normalised SPOT signal, Boehringer light units (BLU); mean over the file's lines of this peptide [3]: 169
- normalised SPOT signal, Boehringer light units (BLU); mean over the file's lines of this peptide [4]: 878
- normalised SPOT signal, Boehringer light units (BLU); mean over the file's lines of this peptide [5]: 37.9

B3: YOR384W 132-145 (peptide)
chain: IRYPVTPNKASLDR
- normalised SPOT signal, Boehringer light units (BLU); mean over the file's lines of this peptide [1]: 41.2
- normalised SPOT signal, Boehringer light units (BLU); mean over the file's lines of this peptide [2]: 166
- normalised SPOT signal, Boehringer light units (BLU); mean over the file's lines of this peptide [3]: 207
- normalised SPOT signal, Boehringer light units (BLU); mean over the file's lines of this peptide [4]: 94.5
- normalised SPOT signal, Boehringer light units (BLU); mean over the file's lines of this peptide [5]: 86.7

B4: YLR233C 283-296 (peptide)
chain: ILTPDFPERRRLMK
- normalised SPOT signal, Boehringer light units (BLU); mean over the file's lines of this peptide [1]: 245
- normalised SPOT signal, Boehringer light units (BLU); mean over the file's lines of this peptide [2]: 99.2
- normalised SPOT signal, Boehringer light units (BLU); mean over the file's lines of this peptide [3]: 1780
- normalised SPOT signal, Boehringer light units (BLU); mean over the file's lines of this peptide [4]: 13700
- normalised SPOT signal, Boehringer light units (BLU); mean over the file's lines of this peptide [5]: 8730

B5: YDR312W 172-185 (peptide)
chain: IFPPLNPARTSLNS
- normalised SPOT signal, Boehringer light units (BLU); mean over the file's lines of this peptide [1]: 134
- normalised SPOT signal, Boehringer light units (BLU); mean over the file's lines of this peptide [2]: 31.3
- normalised SPOT signal, Boehringer light units (BLU); mean over the file's lines of this peptide [3]: 829
- normalised SPOT signal, Boehringer light units (BLU); mean over the file's lines of this peptide [4]: 5080
- normalised SPOT signal, Boehringer light units (BLU); mean over the file's lines of this peptide [5]: 72.9

B6: YER091C 704-717 (peptide)
chain: IHSPRIPSKDEFIA
- normalised SPOT signal, Boehringer light units (BLU); mean over the file's lines of this peptide [1]: 73.2
- normalised SPOT signal, Boehringer light units (BLU); mean over the file's lines of this peptide [2]: 42
- normalised SPOT signal, Boehringer light units (BLU); mean over the file's lines of this peptide [3]: 187
- normalised SPOT signal, Boehringer light units (BLU); mean over the file's lines of this peptide [4]: 224
- normalised SPOT signal, Boehringer light units (BLU); mean over the file's lines of this peptide [5]: 88.8

B7: YMR137C 188-201 (peptide)
chain: ISNPSSPAKTKRDI
- normalised SPOT signal, Boehringer light units (BLU); mean over the file's lines of this peptide [1]: 17.6
- normalised SPOT signal, Boehringer light units (BLU); mean over the file's lines of this peptide [2]: 48.8
- normalised SPOT signal, Boehringer light units (BLU); mean over the file's lines of this peptide [3]: 130
- normalised SPOT signal, Boehringer light units (BLU); mean over the file's lines of this peptide [4]: 108
- normalised SPOT signal, Boehringer light units (BLU); mean over the file's lines of this peptide [5]: 90.8

B8: YDR425W 171-184 (peptide)
chain: IIIPPIPSKHSLLK
- normalised SPOT signal, Boehringer light units (BLU); mean over the file's lines of this peptide [1]: 22.6
- normalised SPOT signal, Boehringer light units (BLU); mean over the file's lines of this peptide [2]: 50
- normalised SPOT signal, Boehringer light units (BLU); mean over the file's lines of this peptide [3]: 204
- normalised SPOT signal, Boehringer light units (BLU); mean over the file's lines of this peptide [4]: 3190
- normalised SPOT signal, Boehringer light units (BLU); mean over the file's lines of this peptide [5]: 92.9

B9: YGL224C 138-151 (peptide)
chain: ILKPDIPLRNMLLR
- normalised SPOT signal, Boehringer light units (BLU); mean over the file's lines of this peptide [1]: 1640
- normalised SPOT signal, Boehringer light units (BLU); mean over the file's lines of this peptide [2]: 60
- normalised SPOT signal, Boehringer light units (BLU); mean over the file's lines of this peptide [3]: 2420
- normalised SPOT signal, Boehringer light units (BLU); mean over the file's lines of this peptide [4]: 12900
- normalised SPOT signal, Boehringer light units (BLU); mean over the file's lines of this peptide [5]: 14700

B10: YBR163W 509-522 (peptide)
chain: IIFPYDPLKLGTHA
- normalised SPOT signal, Boehringer light units (BLU); mean over the file's lines of this peptide [1]: 82.3
- normalised SPOT signal, Boehringer light units (BLU); mean over the file's lines of this peptide [2]: 12.7
- normalised SPOT signal, Boehringer light units (BLU); mean over the file's lines of this peptide [3]: 55.6
- normalised SPOT signal, Boehringer light units (BLU); mean over the file's lines of this peptide [4]: 17.2
- normalised SPOT signal, Boehringer light units (BLU); mean over the file's lines of this peptide [5]: 22.3

B11: YPR185W 368-381 (peptide)
chain: ISRPVQPFKVGSIG
- normalised SPOT signal, Boehringer light units (BLU); mean over the file's lines of this peptide [1]: 22.7
- normalised SPOT signal, Boehringer light units (BLU); mean over the file's lines of this peptide [2]: 79.1
- normalised SPOT signal, Boehringer light units (BLU); mean over the file's lines of this peptide [3]: 185
- normalised SPOT signal, Boehringer light units (BLU); mean over the file's lines of this peptide [4]: 1120
- normalised SPOT signal, Boehringer light units (BLU); mean over the file's lines of this peptide [5]: 60.8

B12: YGL073W 653-666 (peptide)
chain: ILSPGYPNKSFNNK
- normalised SPOT signal, Boehringer light units (BLU); mean over the file's lines of this peptide [1]: 100
- normalised SPOT signal, Boehringer light units (BLU); mean over the file's lines of this peptide [2]: 68.5
- normalised SPOT signal, Boehringer light units (BLU); mean over the file's lines of this peptide [3]: 282
- normalised SPOT signal, Boehringer light units (BLU); mean over the file's lines of this peptide [4]: 293
- normalised SPOT signal, Boehringer light units (BLU); mean over the file's lines of this peptide [5]: 92.5

B13: YCL027W 390-403 (peptide)
chain: IPTPSKPLKKRKKR
- normalised SPOT signal, Boehringer light units (BLU); mean over the file's lines of this peptide [1]: 85
- normalised SPOT signal, Boehringer light units (BLU); mean over the file's lines of this peptide [2]: 50.2
- normalised SPOT signal, Boehringer light units (BLU); mean over the file's lines of this peptide [3]: 213
- normalised SPOT signal, Boehringer light units (BLU); mean over the file's lines of this peptide [4]: 1580
- normalised SPOT signal, Boehringer light units (BLU); mean over the file's lines of this peptide [5]: 97.5

B14: YGR094W 408-421 (peptide)
chain: IQHPFLPRKIPIIT
- normalised SPOT signal, Boehringer light units (BLU); mean over the file's lines of this peptide [1]: 35
- normalised SPOT signal, Boehringer light units (BLU); mean over the file's lines of this peptide [2]: 192
- normalised SPOT signal, Boehringer light units (BLU); mean over the file's lines of this peptide [3]: 250
- normalised SPOT signal, Boehringer light units (BLU); mean over the file's lines of this peptide [4]: 1120
- normalised SPOT signal, Boehringer light units (BLU); mean over the file's lines of this peptide [5]: 327

B15: YOL087C 29-42 (peptide)
chain: ILYPDIPGKNYFLT
- normalised SPOT signal, Boehringer light units (BLU); mean over the file's lines of this peptide [1]: 32.7
- normalised SPOT signal, Boehringer light units (BLU); mean over the file's lines of this peptide [2]: 46.9
- normalised SPOT signal, Boehringer light units (BLU); mean over the file's lines of this peptide [3]: 115
- normalised SPOT signal, Boehringer light units (BLU); mean over the file's lines of this peptide [4]: 116
- normalised SPOT signal, Boehringer light units (BLU); mean over the file's lines of this peptide [5]: 118

B16: YGL144C 459-472 (peptide)
chain: ILLPPLPERAYIMD
- normalised SPOT signal, Boehringer light units (BLU); mean over the file's lines of this peptide [1]: 14900
- normalised SPOT signal, Boehringer light units (BLU); mean over the file's lines of this peptide [2]: 38.9
- normalised SPOT signal, Boehringer light units (BLU); mean over the file's lines of this peptide [3]: 50600
- normalised SPOT signal, Boehringer light units (BLU); mean over the file's lines of this peptide [4]: 26200
- normalised SPOT signal, Boehringer light units (BLU); mean over the file's lines of this peptide [5]: 12.7

B17: YBL019W 264-277 (peptide)
chain: IINPDTPHRRIFNQ
- normalised SPOT signal, Boehringer light units (BLU); mean over the file's lines of this peptide [1]: 157
- normalised SPOT signal, Boehringer light units (BLU); mean over the file's lines of this peptide [2]: 71.9
- normalised SPOT signal, Boehringer light units (BLU); mean over the file's lines of this peptide [3]: 530
- normalised SPOT signal, Boehringer light units (BLU); mean over the file's lines of this peptide [4]: 1670
- normalised SPOT signal, Boehringer light units (BLU); mean over the file's lines of this peptide [5]: 314

B18: YDR501W 316-329 (peptide)
chain: INQPSTPKKLKRKS
- normalised SPOT signal, Boehringer light units (BLU); mean over the file's lines of this peptide [1]: 62.6
- normalised SPOT signal, Boehringer light units (BLU); mean over the file's lines of this peptide [2]: 22.2
- normalised SPOT signal, Boehringer light units (BLU); mean over the file's lines of this peptide [3]: 126
- normalised SPOT signal, Boehringer light units (BLU); mean over the file's lines of this peptide [4]: 2480
- normalised SPOT signal, Boehringer light units (BLU); mean over the file's lines of this peptide [5]: 152

B19: YMR036C 139-152 (peptide)
chain: IKYPGSPQRSSSFS
- normalised SPOT signal, Boehringer light units (BLU); mean over the file's lines of this peptide [1]: 22.8
- normalised SPOT signal, Boehringer light units (BLU); mean over the file's lines of this peptide [2]: 38.1
- normalised SPOT signal, Boehringer light units (BLU); mean over the file's lines of this peptide [3]: 198
- normalised SPOT signal, Boehringer light units (BLU); mean over the file's lines of this peptide [4]: 391
- normalised SPOT signal, Boehringer light units (BLU); mean over the file's lines of this peptide [5]: 105

B20: YBR108W 517-530 (peptide)
chain: IMPPPKPFRHGLDS
- normalised SPOT signal, Boehringer light units (BLU); mean over the file's lines of this peptide [1]: 1540
- normalised SPOT signal, Boehringer light units (BLU); mean over the file's lines of this peptide [2]: 222
- normalised SPOT signal, Boehringer light units (BLU); mean over the file's lines of this peptide [3]: 35500
- normalised SPOT signal, Boehringer light units (BLU); mean over the file's lines of this peptide [4]: 30900
- normalised SPOT signal, Boehringer light units (BLU); mean over the file's lines of this peptide [5]: 258

B21: YMR087W 156-169 (peptide)
chain: IFNPQNPLKTGFEP
- normalised SPOT signal, Boehringer light units (BLU); mean over the file's lines of this peptide [1]: 61.8
- normalised SPOT signal, Boehringer light units (BLU); mean over the file's lines of this peptide [2]: 57.1
- normalised SPOT signal, Boehringer light units (BLU); mean over the file's lines of this peptide [3]: 122
- normalised SPOT signal, Boehringer light units (BLU); mean over the file's lines of this peptide [4]: 170
- normalised SPOT signal, Boehringer light units (BLU); mean over the file's lines of this peptide [5]: 95.5

B22: YMR066W 43-56 (peptide)
chain: IIGPDEPEKSLILK
- normalised SPOT signal, Boehringer light units (BLU); mean over the file's lines of this peptide [1]: 23.6
- normalised SPOT signal, Boehringer light units (BLU); mean over the file's lines of this peptide [2]: 33.5
- normalised SPOT signal, Boehringer light units (BLU); mean over the file's lines of this peptide [3]: 63.1
- normalised SPOT signal, Boehringer light units (BLU); mean over the file's lines of this peptide [4]: 86
- normalised SPOT signal, Boehringer light units (BLU); mean over the file's lines of this peptide [5]: 95.1
